These results are taken from PMC3561989.

The target in data set [1] is hnRNP A1 (cited work) (UniProt P09651). The data set can be described thus: filter binding. Conditions: cited from earlier work.
For data set [2] the target is unchanged. The data set can be described thus: fluorescence assay. The following applies: cited from earlier work.
For a further data set, the target named is T1, Lin28 ZnF (UniProt Q9H9Z2 137-176).
T1 chain: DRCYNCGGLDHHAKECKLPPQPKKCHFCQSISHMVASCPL
Briefly: plate binding, coated protein.

hnRNP A1 (cited work), sequence (P09651 whole entry): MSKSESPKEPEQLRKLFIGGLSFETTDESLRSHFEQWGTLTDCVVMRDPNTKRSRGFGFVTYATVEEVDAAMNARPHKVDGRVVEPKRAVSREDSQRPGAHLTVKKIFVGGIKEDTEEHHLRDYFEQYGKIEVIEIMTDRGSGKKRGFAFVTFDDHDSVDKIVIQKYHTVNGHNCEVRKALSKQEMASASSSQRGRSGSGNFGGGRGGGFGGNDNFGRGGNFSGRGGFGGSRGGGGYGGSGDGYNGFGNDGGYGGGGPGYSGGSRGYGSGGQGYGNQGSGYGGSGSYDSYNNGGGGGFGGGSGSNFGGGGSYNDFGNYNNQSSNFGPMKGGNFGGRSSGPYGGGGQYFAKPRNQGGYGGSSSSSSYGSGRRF

“UAUGAUAGGGACUUAGGGUG [hnRNP A1 SELEX winner]”: the values for the Kd with hnRNP A1 (cited work) [1] and with hnRNP A1 (cited work) [2] were 1 nM and 2.5 nM, respectively.

B1: pre-miR-9-1 (structured_RNA)
RNA: UCUUUGGUUAUCUAGCUGUAUGAGUGGUGUGGAGUCUUCAUAAAGCUAGAUAACCGAAAGU
Take B1: in the data set with Lin28 ZnF, the binding result is recorded as “binds”.
